Experimental data: publication PMC9029656

B1: reference wild-type (WT) peptide (unmodified NW peptide) prohibitin 1 (PHB1), endogenous in human blood monocytes [human (endogenous in blood monocytes)] (parent)
chain 1: NWYLPWLGTNDW
chain 2: MAAKVFESIGKFGLALAVAGGVVNSALYNVDAGHRAVIFDRFRGVQDIVVGEGTHFLIPWVQKPIIFDCRSRPRNVPVITGSKDLQNVNITLRILFRPVASQLPRIFTSIGEDYDERVLPSITTEILKSVVARFDAGELITQRELVSRQVSDDLTERAATFGLILDDVSLTHLTFGKEFTEAVEAKQVAQQEAERARFVVEKAEQQKKAAIISAEGDSKAAELIANSLATAGDGLIELRKLEAAEDIAYQLSRSRNITYLPAGQSVLLQLPQ

Variants of: B1
Test: flow cytometry competition assay on monocytes
Conditions: with prohibitin 1 (PHB1)
[1] = competitor 2.5 µg/ml, NW peptide 0.05 µg/mL, parent: 50, read off a plot
[2] = competitor 5 µg/ml, NW peptide 0.05 µg/mL, parent: 82, read off a plot
[3] = competitor 10 µg/ml, NW peptide 0.05 µg/mL, parent: 92, read off a plot
[4] = competitor 20 µg/ml, NW peptide 0.05 µg/mL, parent: 95, read off a plot
[5] = competitor 2.5 µg/ml, experimental conditions as in Figure 7, parent: 45, read off a plot
[6] = competitor 5 µg/ml, experimental conditions as in Figure 7, parent: 60, read off a plot
[7] = competitor 10 µg/ml, experimental conditions as in Figure 7, parent: 85, read off a plot
[8] = competitor 20 µg/ml, experimental conditions as in Figure 7, parent: 93, read off a plot

| screen value [1] [%] | screen value [2] [%] | screen value [3] [%] | screen value [4] [%] | screen value [5] [%] | screen value [6] [%] | screen value [7] [%] | screen value [8] [%] | Variant |
| --- | --- | --- | --- | --- | --- | --- | --- | --- |
| 0 | 9 | 10 | 8 | – | – | – | – | chain 1 W12A |
| 10 | 20 | 60 | 80 | – | – | – | – | chain 1 T9A |
| 30 | 45 | 67 | 90 | – | – | – | – | chain 1 N1A |
| – | – | – | – | 50 | 55 | 86 | 95 | chain 1 L4V L7V |
| 23 | 54 | 56 | 68 | – | – | – | – | chain 1 Y3A |
| – | – | – | – | 5 | – | – | 3 | chain 1 W2Y W6Y W12Y |
| 56 | 70 | 86 | 95 | – | – | – | – | chain 1 N10A |
| 0 | 0 | 0 | 2.5 | – | – | – | – | chain 1 W2A |
| – | – | – | – | – | 7 | 3 | 4 | chain 1 W2F W6F W12F |
| 0 | 0 | 2.5 | 0 | – | – | – | – | chain 1 L4A |
| 0 | 0 | 8 | 12 | – | – | – | – | chain 1 W6A |
| 0 | 0 | 0 | 2.5 | – | – | – | – | chain 1 L7A |
| 0 | 10 | 45 | 65 | – | – | – | – | chain 1 G8A |
| 47 | 80 | 85 | 98 | – | – | – | – | chain 1 D11A |
| 0 | 12 | 30 | 65 | – | – | – | – | chain 1 P5A |
